Measured values reported in the supplement of paper PMC7125110.
± gives the standard error. For part of these data: Fewer inactive variants are shown than the library holds.

B1: glmS ribozyme (parent)
chain: AUAAAAGCGCCAGAACUACAGAAAUGUAGUUGACGAGGAGGAGGUUUAUCGAAUUUUCGGCGGAUGCCUCCAAA

What was measured:
Conditions in all cases: with glucosamine-6-phosphate
[1] = variants of: B1; test: kcat; higher = faster cleavage; RNA array
Outline: (§1)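 Tracking of barcoded ribozyme variants used a hybridised Cy3 probe at 37 °C, after in situ transcription by E. coli RNA polymerase on sequenced MiSeq chips. The flowed solution held 40 μM to 10 mM glucosamine-6-phosphate in HEPES/KCl/Mg(OAc)2 buffer, and imaging ran over ~14 h. kobs was taken from exponential decay fits of normalised per-tile medians, and kcat and KM from weighted Michaelis–Menten fits.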

[2] = variants of: B1; test: self-cleavage kobs at 40 uM GlcN6P; higher = faster cleavage; RNA array
Outline: as §1

[3] = variants of: B1; test: self-cleavage kobs at 160 uM GlcN6P; higher = faster cleavage; RNA array
Outline: as §1

[4] = variants of: B1; test: self-cleavage kobs at 640 uM GlcN6P; higher = faster cleavage; RNA array
Outline: as §1

[5] = variants of: B1; test: self-cleavage kobs at 2500 uM GlcN6P; higher = faster cleavage; RNA array
Outline: as §1

[6] = variants of: B1; test: self-cleavage kobs at 10000 uM GlcN6P; higher = faster cleavage; RNA array
Outline: as §1

[7] = variants of: B1; test: KM; higher = weaker cofactor use; RNA array
Outline: as §1

| Variant | kcat [1] [s⁻¹] | self-cleavage kobs at 40 uM GlcN6P [2] [s⁻¹] | self-cleavage kobs at 160 uM GlcN6P [3] [s⁻¹] | self-cleavage kobs at 640 uM GlcN6P [4] [s⁻¹] | self-cleavage kobs at 2500 uM GlcN6P [5] [s⁻¹] | self-cleavage kobs at 10000 uM GlcN6P [6] [s⁻¹] | KM [7] [µM] |
| --- | --- | --- | --- | --- | --- | --- | --- |
| A39G C70G | 0.000172 ± 3.8e-05 | 0.000112 ± 1.6e-05 | 0.000143 ± 2.3e-05 | 0.000314 ± 4.7e-05 | 0.000245 ± 3.2e-05 | 0.000132 ± 1.8e-05 |  |
| A36U C68G | 0.000198 ± 5.7e-05 | 7.38e-05 ± 1.2e-05 |  | 0.000275 ± 3.5e-05 |  | 0.000121 ± 3.4e-05 |  |
| A36G C70A | 1.58e-05 ± 4.3e-06 |  |  |  |  |  |  |
| G37C G60C | < 1e-05 |  |  |  |  | < 1e-05 |  |
| C34G C68U | 1.7e-05 ± 5.3e-06 |  |  |  |  |  |  |
| A39C U47C | 0.00157 ± 0.00025 | 4.25e-05 ± 5.6e-06 | 0.000105 ± 1.6e-05 | 0.000327 ± 3.9e-05 | 0.000934 ± 0.00011 | 0.00131 ± 0.00011 | 2020 ± 510 |
| C34G C61G | < 1e-05 | < 1e-05 |  | < 1e-05 |  |  |  |
| G38C G40A | < 1e-05 |  | < 1e-05 |  |  | < 1e-05 |  |
| A36U U47G G51U | < 1e-05 |  |  |  |  | < 1e-05 |  |
| G37C C58A G66A C70A C71A | 2.19e-05 ± 8.6e-06 |  |  |  |  |  |  |
| G37U C71G | 1.72e-05 ± 4.2e-06 |  |  |  |  |  |  |
| G37U C70A | 1.53e-05 ± 2e-06 |  |  |  |  |  |  |
| G37A G44U | 8.09e-05 ± 2.1e-05 |  | < 1e-05 |  | 4.71e-05 ± 9.1e-06 | 5.95e-05 ± 2.3e-05 |  |
| A33U A53U | 4.9e-05 ± 3.4e-06 | < 1e-05 | < 1e-05 |  | 2.34e-05 ± 1e-05 | 3.95e-05 ± 9.4e-06 | 2490 ± 550 |
| G37A A39C | 0.00108 ± 0.0001 |  | 3.21e-05 ± 1.1e-05 | 0.000144 ± 1.8e-05 | 0.000399 ± 6e-05 | 0.000742 ± 0.00013 | 4350 ± 560 |
| G37A A39G | 0.00599 ± 0.00079 | 6.85e-05 ± 7.9e-06 | 0.000243 ± 4.5e-05 | 0.00068 ± 0.00012 | 0.00235 ± 0.0003 | 0.00437 ± 0.00039 | 3900 ± 740 |
| A33U G38C | < 1e-05 |  |  |  |  | < 1e-05 |  |
| A39G C58A | 0.00088 ± 0.00013 |  | 4.38e-05 ± 1.9e-05 | 0.000129 ± 3e-05 | 0.000275 ± 6.4e-05 | 0.000642 ± 7.7e-05 | 4140 ± 1100 |
| G38U C58G | < 1e-05 |  |  |  |  |  |  |

| Variant | kcat [1] [s⁻¹] | self-cleavage kobs at 40 uM GlcN6P [2] [s⁻¹] | self-cleavage kobs at 160 uM GlcN6P [3] [s⁻¹] | self-cleavage kobs at 640 uM GlcN6P [4] [s⁻¹] | self-cleavage kobs at 2500 uM GlcN6P [5] [s⁻¹] | self-cleavage kobs at 10000 uM GlcN6P [6] [s⁻¹] | KM [7] [µM] |
| --- | --- | --- | --- | --- | --- | --- | --- |
| C34G C70U | < 1e-05 |  |  |  |  | < 1e-05 |  |
| G38A U69G | 3.24e-05 ± 5.7e-06 |  |  |  | 3.53e-05 ± 1.3e-05 |  |  |
| G37A G40U | 0.000159 ± 2e-05 |  |  | 3.99e-05 ± 7.5e-06 | 8.45e-05 ± 9.3e-06 | 0.000151 ± 4.4e-05 | 2050 ± 490 |
| G37A G40C | 0.000207 ± 4.1e-05 |  |  | 4.22e-05 ± 1.3e-05 | 0.00015 ± 3.5e-05 | 0.000157 ± 3.4e-05 | 2180 ± 880 |
| G35A C50G U69A | 0.000277 ± 5.3e-05 | 0.000149 ± 3.4e-05 | 0.000465 ± 0.00015 | 0.000501 ± 0.00021 | 0.000206 ± 7.8e-05 | 0.000278 ± 5.3e-05 |  |
| A39G U56A | 0.0171 ± 0.0023 | 0.000348 ± 6.9e-05 | 0.00162 ± 0.00029 | 0.0049 ± 0.00073 | 0.0133 ± 0.0025 | 0.0137 ± 0.0019 | 1670 ± 340 |
| G35C C50G G60U | 3.38e-05 ± 1.4e-05 |  | 5.86e-05 ± 1.9e-05 |  |  |  |  |
| G37A U45A | 0.00537 ± 0.00043 | 0.000126 ± 1.4e-05 | 0.000452 ± 8.9e-05 | 0.00131 ± 0.00021 | 0.0027 ± 0.0006 | 0.00477 ± 0.00049 | 1760 ± 210 |
| G37C U57G | 1.13e-05 ± 4.5e-06 |  | < 1e-05 |  |  | < 1e-05 |  |
| A36U C61A | < 1e-05 | < 1e-05 |  |  |  | < 1e-05 |  |
| A33U C58A | < 1e-05 |  | < 1e-05 | < 1e-05 |  |  |  |
| A39G C67A | 0.00703 ± 0.003 | 0.000425 ± 7.2e-05 |  | 0.00288 ± 0.00088 |  | 0.00689 ± 0.0015 |  |
| A39G C67U | 0.00597 ± 0.0013 | 0.00033 ± 5.8e-05 | 0.000762 ± 0.00016 | 0.00216 ± 0.00033 | 0.00338 ± 0.0007 | 0.00666 ± 0.00089 | 979 ± 370 |
| G38A C58G C70U | 1.98e-05 ± 8.1e-06 |  |  |  |  |  |  |
| A39C A42U | 0.000187 ± 4e-05 |  |  |  | 0.000135 ± 2.9e-05 | 0.000143 ± 2.2e-05 |  |
| A39G U65A | 0.0108 ± 0.0047 | 0.000266 ± 6.6e-05 |  | 0.00201 ± 0.00056 | 0.00741 ± 0.0031 | 0.00966 ± 0.0034 |  |
| C34A A36U | < 1e-05 | < 1e-05 |  | < 1e-05 | < 1e-05 | < 1e-05 |  |
| G37U C50A | < 1e-05 |  |  | < 1e-05 |  | < 1e-05 |  |
| G38A C71G | < 1e-05 |  |  |  |  |  |  |
